Test [1] has as its target Pyruvate:ferredoxin oxidoreductase PFOR1 of Thermoanaerobacter kivui (Thermoanaerobacter kivui). As to the kind of experiment: SEC; analytical size exclusion chromatography on a calibrated Superdex 200 column, buffer E (50 mM Tris/HCl, 150 mM NaCl, 20 mM MgSO4, 2 mM DTE, 4 µM resazurin, 20% glycerol, pH 7.5), size standards ovalbumin, albumin, catalase, ferritin.
For test [2] the target is unchanged.

On to “Pyruvate:ferredoxin oxidoreductase PFOR1 of Thermoanaerobacter kivui (enzyme)”, for which the stoichiometry N in test [1] stood at 2.

B1: Ferredoxin isolated from Clostridium pasteurianum (natural protein)
chain: MAYKIADSCVSCGACASECPVNAISQGDSIFVIDADTCIDCGNCANVCPVGAPVQE
For B1, the Km for Fd of the pyruvate-dependent Fd reduction by purified PFOR1 (enzyme activity, 66 °C, pH 7.5, Fd 0-50 µM) in test [2] came out at 19.1 µM.
